Patent publication US20140087995A1 (published 2014)
Numbered stars: 1 amine (or outer) side, 2 acyl side, 3 side chain; on linkers, the order of the positions; unused ones are H or OH. Bridge positions count the residues as written; N and C are the ends. Side chains are listed from the residue outwards. Ends that are not written are not given here. * marks the point of attachment. C20 diacid = O=C(O)CCCCCCCCCCCCCCCCCCC(=O)*; γGlu = O=C(O)[C@H](CCC(=O)[*:2])N[*:1]

T1: human calcitonin receptor (human, UniProt P30988 25-474)
T1 construct: whole, on cells; Used as membranes prepared from a BHK tk'ts 13 cell line stably transfected with the human calcitonin receptor (Assay VII); also called hCTR; hCT
T1 sequence (looked up): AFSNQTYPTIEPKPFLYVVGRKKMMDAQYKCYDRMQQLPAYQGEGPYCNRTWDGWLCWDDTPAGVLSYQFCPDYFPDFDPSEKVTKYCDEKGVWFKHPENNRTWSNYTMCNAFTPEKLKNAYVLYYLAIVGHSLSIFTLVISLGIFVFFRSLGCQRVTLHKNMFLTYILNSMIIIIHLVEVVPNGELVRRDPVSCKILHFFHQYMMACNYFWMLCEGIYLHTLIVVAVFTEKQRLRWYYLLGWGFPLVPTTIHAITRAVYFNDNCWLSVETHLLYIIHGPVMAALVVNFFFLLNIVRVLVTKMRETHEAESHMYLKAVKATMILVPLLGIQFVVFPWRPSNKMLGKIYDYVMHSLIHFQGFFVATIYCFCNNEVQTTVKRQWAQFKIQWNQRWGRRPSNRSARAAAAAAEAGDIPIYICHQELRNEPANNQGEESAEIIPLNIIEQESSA

T2: rat calcitonin receptor (rat, UniProt P32214 25-516)
T2 construct: whole, on cells; Used as membranes prepared from BHK tk'ts 13 cells transiently transfected with the rat calcitonin receptor (Assay VIII); also called rCTR; rat calcitonin (a) receptor
T2 sequence (looked up): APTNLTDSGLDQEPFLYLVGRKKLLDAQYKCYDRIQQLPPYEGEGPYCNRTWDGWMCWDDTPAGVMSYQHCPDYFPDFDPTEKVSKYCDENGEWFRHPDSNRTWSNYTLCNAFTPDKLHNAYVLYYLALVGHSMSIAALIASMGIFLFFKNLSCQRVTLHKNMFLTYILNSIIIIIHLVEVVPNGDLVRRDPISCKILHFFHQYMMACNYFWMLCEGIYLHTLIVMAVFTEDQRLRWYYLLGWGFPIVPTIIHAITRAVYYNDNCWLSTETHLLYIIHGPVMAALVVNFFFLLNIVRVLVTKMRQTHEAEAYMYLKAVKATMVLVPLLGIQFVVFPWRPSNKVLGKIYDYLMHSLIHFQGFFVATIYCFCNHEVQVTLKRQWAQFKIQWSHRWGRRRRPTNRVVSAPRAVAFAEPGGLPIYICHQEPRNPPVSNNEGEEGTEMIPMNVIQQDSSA

T3: rat amylin receptor (rat calcitonin receptor + rat RAMP 3) (rat, UniProt P32214 25-516; Q9JJ73 23-147)
T3 construct: whole, on cells; Used as membranes prepared from BHK tk'ts 13 cells transiently transfected with rat calcitonin receptor and rat RAMP 3 (Assay VI); also called rAmylin-R; rat amylin 3(a) receptor
T3 sequence (looked up) 1: T2 sequence (looked up)
T3 sequence (looked up) 2: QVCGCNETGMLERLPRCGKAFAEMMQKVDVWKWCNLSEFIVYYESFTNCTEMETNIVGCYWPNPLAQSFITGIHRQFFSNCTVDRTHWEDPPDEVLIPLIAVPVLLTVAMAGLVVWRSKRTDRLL

B1: N^ε-[(4S)-4-carboxy-4-(19-carboxynonadecanoylamino)butanoyl]Lys[Arg1,Arg17,Pro21,Pro27,His35]-h-amylin (peptide)
peptide: K([γGlu-C20 diacid])RCNTATCATQRLANFLRHSSPNFGAIPSSTNVGSHTY-NH2
modifications: disulfide 3-8; N-terminus assumed
SMILES: CC[C@H](C)[C@H](NC(=O)[C@H](C)NC(=O)CNC(=O)[C@H](Cc1ccccc1)NC(=O)[C@H](CC(N)=O)NC(=O)[C@@H]1CCCN1C(=O)[C@H](CO)NC(=O)[C@H](CO)NC(=O)[C@H](Cc1c[nH]cn1)NC(=O)[C@H](CCCNC(=N)N)NC(=O)[C@H](CC(C)C)NC(=O)[C@H](Cc1ccccc1)NC(=O)[C@H](CC(N)=O)NC(=O)[C@H](C)NC(=O)[C@H](CC(C)C)NC(=O)[C@H](CCCNC(=N)N)NC(=O)[C@H](CCC(N)=O)NC(=O)[C@@H](NC(=O)[C@H](C)NC(=O)[C@@H]1CSSC[C@H](NC(=O)[C@H](CCCNC(=N)N)NC(=O)[C@@H](N)CCCCNC(=O)CC[C@H](NC(=O)CCCCCCCCCCCCCCCCCCC(=O)O)C(=O)O)C(=O)N[C@@H](CC(N)=O)C(=O)N[C@@H]([C@@H](C)O)C(=O)N[C@@H](C)C(=O)N[C@@H]([C@@H](C)O)C(=O)N1)[C@@H](C)O)C(=O)N1CCC[C@H]1C(=O)N[C@@H](CO)C(=O)N[C@@H](CO)C(=O)N[C@H](C(=O)N[C@@H](CC(N)=O)C(=O)N[C@H](C(=O)NCC(=O)N[C@@H](CO)C(=O)N[C@@H](Cc1c[nH]cn1)C(=O)N[C@H](C(=O)N[C@@H](Cc1ccc(O)cc1)C(N)=O)[C@@H](C)O)C(C)C)[C@@H](C)O
notes: Analogue of human amylin; also called compound 44
B2: N^-1-[(4S)-4-carboxy-4-(19-carboxynonadecanoylamino)butanoyl]-Gly[Arg1,Arg17,Pro21,Pro27,His35]-h-amylin (peptide)
peptide: {C20 diacid-γGlu}-GRCNTATCATQRLANFLRHSSPNFGAIPSSTNVGSHTY-NH2
modifications: disulfide 3-8
SMILES: CC[C@H](C)[C@H](NC(=O)[C@H](C)NC(=O)CNC(=O)[C@H](Cc1ccccc1)NC(=O)[C@H](CC(N)=O)NC(=O)[C@@H]1CCCN1C(=O)[C@H](CO)NC(=O)[C@H](CO)NC(=O)[C@H](Cc1c[nH]cn1)NC(=O)[C@H](CCCNC(=N)N)NC(=O)[C@H](CC(C)C)NC(=O)[C@H](Cc1ccccc1)NC(=O)[C@H](CC(N)=O)NC(=O)[C@H](C)NC(=O)[C@H](CC(C)C)NC(=O)[C@H](CCCNC(=N)N)NC(=O)[C@H](CCC(N)=O)NC(=O)[C@@H](NC(=O)[C@H](C)NC(=O)[C@@H]1CSSC[C@H](NC(=O)[C@H](CCCNC(=N)N)NC(=O)CNC(=O)CC[C@H](NC(=O)CCCCCCCCCCCCCCCCCCC(=O)O)C(=O)O)C(=O)N[C@@H](CC(N)=O)C(=O)N[C@@H]([C@@H](C)O)C(=O)N[C@@H](C)C(=O)N[C@@H]([C@@H](C)O)C(=O)N1)[C@@H](C)O)C(=O)N1CCC[C@H]1C(=O)N[C@@H](CO)C(=O)N[C@@H](CO)C(=O)N[C@H](C(=O)N[C@@H](CC(N)=O)C(=O)N[C@H](C(=O)NCC(=O)N[C@@H](CO)C(=O)N[C@@H](Cc1c[nH]cn1)C(=O)N[C@H](C(=O)N[C@@H](Cc1ccc(O)cc1)C(N)=O)[C@@H](C)O)C(C)C)[C@@H](C)O
notes: Analogue of human amylin; also called compound 47
B3: N^-1-[(4S)-4-carboxy-4-(19-carboxynonadecanoylamino)butanoyl]-Gly[Arg1,Arg17,Pro21,Pro27]-h-amylin (peptide)
peptide: {C20 diacid-γGlu}-GRCNTATCATQRLANFLRHSSPNFGAIPSSTNVGSNTY-NH2
modifications: disulfide 3-8
SMILES: CC[C@H](C)[C@H](NC(=O)[C@H](C)NC(=O)CNC(=O)[C@H](Cc1ccccc1)NC(=O)[C@H](CC(N)=O)NC(=O)[C@@H]1CCCN1C(=O)[C@H](CO)NC(=O)[C@H](CO)NC(=O)[C@H](Cc1c[nH]cn1)NC(=O)[C@H](CCCNC(=N)N)NC(=O)[C@H](CC(C)C)NC(=O)[C@H](Cc1ccccc1)NC(=O)[C@H](CC(N)=O)NC(=O)[C@H](C)NC(=O)[C@H](CC(C)C)NC(=O)[C@H](CCCNC(=N)N)NC(=O)[C@H](CCC(N)=O)NC(=O)[C@@H](NC(=O)[C@H](C)NC(=O)[C@@H]1CSSC[C@H](NC(=O)[C@H](CCCNC(=N)N)NC(=O)CNC(=O)CC[C@H](NC(=O)CCCCCCCCCCCCCCCCCCC(=O)O)C(=O)O)C(=O)N[C@@H](CC(N)=O)C(=O)N[C@@H]([C@@H](C)O)C(=O)N[C@@H](C)C(=O)N[C@@H]([C@@H](C)O)C(=O)N1)[C@@H](C)O)C(=O)N1CCC[C@H]1C(=O)N[C@@H](CO)C(=O)N[C@@H](CO)C(=O)N[C@H](C(=O)N[C@@H](CC(N)=O)C(=O)N[C@H](C(=O)NCC(=O)N[C@@H](CO)C(=O)N[C@@H](CC(N)=O)C(=O)N[C@H](C(=O)N[C@@H](Cc1ccc(O)cc1)C(N)=O)[C@@H](C)O)C(C)C)[C@@H](C)O
notes: Analogue of human amylin; also called compound 46
B4: N^ε21-[(4S)-4-carboxy-4-[[(4S)-4-carboxy-4-(19-carboxynonadecanoylamino)butanoyl]amino]butanoyl]-[Asp14,Arg17,Lys21,Pro27,Asp35]-h-amylin (peptide)
peptide: KCNTATCATQRLADFLRHSSK([γGlu-γGlu-C20 diacid])NFGAIPSSTNVGSDTY-NH2
modifications: disulfide 2-7; N-terminus assumed
SMILES: CC[C@H](C)[C@H](NC(=O)[C@H](C)NC(=O)CNC(=O)[C@H](Cc1ccccc1)NC(=O)[C@H](CC(N)=O)NC(=O)[C@H](CCCCNC(=O)CC[C@H](NC(=O)CC[C@H](NC(=O)CCCCCCCCCCCCCCCCCCC(=O)O)C(=O)O)C(=O)O)NC(=O)[C@H](CO)NC(=O)[C@H](CO)NC(=O)[C@H](Cc1c[nH]cn1)NC(=O)[C@H](CCCNC(=N)N)NC(=O)[C@H](CC(C)C)NC(=O)[C@H](Cc1ccccc1)NC(=O)[C@H](CC(=O)O)NC(=O)[C@H](C)NC(=O)[C@H](CC(C)C)NC(=O)[C@H](CCCNC(=N)N)NC(=O)[C@H](CCC(N)=O)NC(=O)[C@@H](NC(=O)[C@H](C)NC(=O)[C@@H]1CSSC[C@H](NC(=O)[C@@H](N)CCCCN)C(=O)N[C@@H](CC(N)=O)C(=O)N[C@@H]([C@@H](C)O)C(=O)N[C@@H](C)C(=O)N[C@@H]([C@@H](C)O)C(=O)N1)[C@@H](C)O)C(=O)N1CCC[C@H]1C(=O)N[C@@H](CO)C(=O)N[C@@H](CO)C(=O)N[C@H](C(=O)N[C@@H](CC(N)=O)C(=O)N[C@H](C(=O)NCC(=O)N[C@@H](CO)C(=O)N[C@@H](CC(=O)O)C(=O)N[C@H](C(=O)N[C@@H](Cc1ccc(O)cc1)C(N)=O)[C@@H](C)O)C(C)C)[C@@H](C)O
notes: Analogue of human amylin; also called compound 59

biological target: T1, human calcitonin receptor; assay: IC50 on human CTR divided by IC50 on human amylin receptor (Assays VII/V)
Outline: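 Membranes (35 ng/μL final) + SPA beads, 50 mM Hepes pH 7.4 buffer with 1 mM CaCl2, 5 mM MgCl₂, 0.1% OA, 0.02% Tween20; 120 min, 25° C, shaking; centrifuged, counted; IC₅₀ by one-site binding competition.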

Ratio hCT/hAmylin binding	Binder
17.7	B1
44.9	B2
48.9	B3
4.3	B4

biological target: T2, rat calcitonin receptor; assay: IC50 on rat CTR divided by IC50 on rat amylin receptor (Assays VIII/VI)

Ratio rCT/rAmylin binding	Binder
53.3	B1
84.3	B2
142	B3
28.5	B4

biological target: T3, rat amylin receptor (rat calcitonin …); assay: SPA competition with 125I-rat amylin, membranes of BHK cells with rat CTR + rat RAMP3 (Assay VI)

IC50	Binder
0.369 nM	B1
0.203 nM	B2
0.33 nM	B3
0.659 nM	B4

biological target: T2, rat calcitonin receptor; assay: SPA competition with 125I-calcitonin, membranes of BHK cells with rat CTR (Assay VIII)

IC50	Binder
19.6 nM	B1
17.1 nM	B2
46.8 nM	B3
18.8 nM	B4
